In test [1] the target is T1, hILT4-His-Avi tag (human, UniProt Q8N423 22-459).
T1 construct: also called monomeric human ILT4; extracellular region of hILT4 linked to a His-Avi tag
Briefly: SPR Biacore T200, 37 C; antibody captured by anti-human Fc on CM4 chip, hILT4-His-Avi as analyte; 1:1 Langmuir fit. Here is the method:
The running buffer was 10 mM HEPES pH 7.4 supplemented with 0.05% Tween-20 and 1 g/L BSA. All anti-ILT4 antibodies were captured on a CM4 chip with pre-immobilized anti-human Fc capture antibody from Southern Biotech (catalog number 2081-01). […] All data were double-referenced and fitted to a 1:1 Langmuir model with mass transport using Biacore T200 Evaluation Software version 3.1.
For orientation: Surface plasmon resonance follows binding to a sensor surface in real time, without labels.

In test [2] the target is T1, hILT4-His-Avi tag. Description: SPR ProteOn XPR36, 37 C; antibody amine-coupled to GLC chip, ILT4 ECD-His-Avi as analyte; kinetic titration. The protocol:
(§1) The antibody was amine-coupled to a GLC sensor chip in a Proteon XPR36 instrument (BioRad). […] All data were double-referenced, exported, and analyzed with BIAevaluation Software 4.1.1 using the kinetic titration model described by Karlsson et al (Karlsson et al. (2005) Analytical Biochem. 349:136). The running buffer consisted of 10 mM HEPES pH 7.4, 150 mM NaCl and 0.05% Tween-20. The assay temperature was 37° C.

Test [3] has as its target T2, cyno ILT4 9152 extracellular domain, including His-Avi Tag (cynomolgus monkey). The description is as above. The protocol: as §1
Test [4] concerns the target T2, cyno ILT4 9152 extracellular domain, …. Briefly: SPR ProteOn XPR36, 37 C; antibody amine-coupled to GLC chip, ILT4 ECD-His-Avi as analyte. Here is the method:
as §1

The target of test [5] is T3, human ILT4 (hILT4) expressed on cells (human, UniProt Q8N423 22-597).
T3 construct: hILT4 on transfected CHO or 293T cells, or native on human monocytes and macrophages; also called LILRB2
T3 sequence (Q8N423 other isoform, or with tags, fused parts or gaps): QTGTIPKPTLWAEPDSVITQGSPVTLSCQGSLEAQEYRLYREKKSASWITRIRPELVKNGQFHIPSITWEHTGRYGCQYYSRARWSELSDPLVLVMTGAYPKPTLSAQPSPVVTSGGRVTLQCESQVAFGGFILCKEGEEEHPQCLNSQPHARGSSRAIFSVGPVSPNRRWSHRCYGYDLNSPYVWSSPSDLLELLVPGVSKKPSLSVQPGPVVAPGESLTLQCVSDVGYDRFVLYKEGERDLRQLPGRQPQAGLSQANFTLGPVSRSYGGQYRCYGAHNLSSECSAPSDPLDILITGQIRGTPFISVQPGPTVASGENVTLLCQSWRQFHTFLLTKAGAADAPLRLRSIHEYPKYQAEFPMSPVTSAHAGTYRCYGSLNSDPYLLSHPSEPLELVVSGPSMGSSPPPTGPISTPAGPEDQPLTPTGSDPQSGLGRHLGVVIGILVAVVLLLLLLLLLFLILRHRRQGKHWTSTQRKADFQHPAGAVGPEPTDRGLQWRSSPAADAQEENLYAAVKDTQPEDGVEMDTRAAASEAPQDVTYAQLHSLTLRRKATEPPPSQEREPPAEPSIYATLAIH
Description: flow cytometry on hILT4-transfected CHO cells, PE anti-human IgG secondary, GMFI (PE); EC50 from the table below the graph; the table has no unit, the concentration axis is in ug/mL. In general terms: Flow cytometry measures light scatter and fluorescence of single cells or particles in a stream.

For test [6], the target named is T1, hILT4-His-Avi tag. Description: SPR Biacore T200, 37 C; antibody captured on protein A/G chip, monomeric hILT4 as analyte; kinetic fit.
The target of test [7] is T4, rhILT4-Fc (human, UniProt Q8N423-1 22-461).
T4 construct: also called rhILT4-Fc fusion protein with a murine Fc tail; not shown: murine Fc tail
T4 sequence (Q8N423 other isoform, or with tags, fused parts or gaps): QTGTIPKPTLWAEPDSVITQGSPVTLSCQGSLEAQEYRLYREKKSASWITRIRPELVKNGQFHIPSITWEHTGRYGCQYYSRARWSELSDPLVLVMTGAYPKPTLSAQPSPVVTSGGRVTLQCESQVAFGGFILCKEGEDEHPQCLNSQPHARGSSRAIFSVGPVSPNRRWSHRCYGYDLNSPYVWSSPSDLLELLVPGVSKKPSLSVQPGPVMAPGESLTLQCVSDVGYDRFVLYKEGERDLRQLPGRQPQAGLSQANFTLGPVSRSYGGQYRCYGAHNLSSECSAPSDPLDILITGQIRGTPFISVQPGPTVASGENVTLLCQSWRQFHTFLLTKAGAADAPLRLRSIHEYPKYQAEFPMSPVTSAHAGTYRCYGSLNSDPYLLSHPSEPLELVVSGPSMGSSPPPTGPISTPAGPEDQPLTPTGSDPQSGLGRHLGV
Briefly: flow cytometry blocking assay: antibody titrated (12 points) with rhILT4-Fc fixed at 30 µg/ml; rhILT4-Fc bound to HLA-B overexpressing CHO cells read as % Positive; blocked ligand: HLA-B; the IC50 table has no unit, the concentration axis is in ug/mL.

For test [8], the target named is T4, rhILT4-Fc. Description: flow cytometry blocking assay: antibody titrated (12 points) with rhILT4-Fc fixed at 30 µg/ml; rhILT4-Fc bound to HLA-A overexpressing CHO cells read as % Positive; blocked ligand: HLA-A; the IC50 table has no unit, the concentration axis is in ug/mL.
The target in test [9] is T3, human ILT4 (hILT4) expressed on cells. Description: flow cytometry cross-blocking on hILT4 CHO cells: unlabelled antibody titrated from 40 µg/mL, then PE-2H2.IgG1.1f at 1.5 µg/mL; competitor: PE-2H2; GMFI (PE) falls from about 330 to about 25; the table calls the value EC50 and has no unit, the concentration axis is in µg/mL. An excerpt: (§2) After washing, the samples were acquired on a FACSCanto™ cytometer (BD Bioscience, San Jose) and analyzed with Flowjo™ software (Tree Star, Inc, Ashland, Oreg.).

For test [10] the target is unchanged. Description: flow cytometry cross-blocking on hILT4 CHO cells: unlabelled antibody titrated from 40 µg/mL, then PE-21D9.IgG1.1f at 1.5 µg/mL; competitor: PE-21D9; the 21A5 curve does NOT fall: GMFI (PE) goes from about 615 up to about 665, no blocking of PE-21D9; the printed EC50 belongs to this small rise; table without unit, axis in µg/mL.
Description: as §2

In test [11] the target is T5, human LIR8 (human, UniProt O75023 24-590).
T5 construct: whole, on cells; also called hLIR8
T5 sequence (O75023 24-590): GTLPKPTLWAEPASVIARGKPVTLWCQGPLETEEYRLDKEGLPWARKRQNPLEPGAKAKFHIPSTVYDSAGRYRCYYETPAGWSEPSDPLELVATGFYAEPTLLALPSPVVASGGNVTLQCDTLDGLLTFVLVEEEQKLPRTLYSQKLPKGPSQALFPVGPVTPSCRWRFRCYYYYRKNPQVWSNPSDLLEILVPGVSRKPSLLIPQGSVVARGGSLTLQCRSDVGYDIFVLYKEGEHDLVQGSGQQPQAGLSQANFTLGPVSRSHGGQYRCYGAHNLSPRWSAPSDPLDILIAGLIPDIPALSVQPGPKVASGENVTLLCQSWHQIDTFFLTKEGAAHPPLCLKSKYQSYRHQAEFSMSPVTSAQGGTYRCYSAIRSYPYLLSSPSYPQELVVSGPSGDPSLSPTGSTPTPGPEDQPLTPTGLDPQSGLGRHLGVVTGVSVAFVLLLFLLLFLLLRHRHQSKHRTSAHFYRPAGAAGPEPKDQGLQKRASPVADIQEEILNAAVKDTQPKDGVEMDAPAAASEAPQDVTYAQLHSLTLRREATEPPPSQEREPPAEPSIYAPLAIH
Briefly: flow cytometry, 293T transfectants, antibody 20 µg/ml; stacked histograms, control: parental cells. The protocol:
(§3) Individual ILT family members were overexpressed in 293T cells. Each transfectant was stained with 20 μg/ml of anti-ILT4 antibodies followed by 1 μg/ml of anti-human IgG secondary mAb. Binding of the antibodies to each transfectant was measured by flow cytometry.

The target of test [12] is T6, human LILRA4 (human, UniProt P59901 24-499).
T6 construct: whole, on cells; also called hLILRA4
The description is as above. The protocol: as §3

Test [13] has as its target T7, human LILRA6 (human, UniProt Q6PI73 24-481).
T7 construct: whole, on cells; also called hLILRA6
The test is described as above. The protocol: as §3

In test [14] the target is T8, human ILT3 (human, UniProt Q8NHJ6 22-448).
T8 construct: whole, on cells; also called hILT3
Described as above. The protocol: as §3

Test [15] addresses T9, human ILT2 (human, UniProt Q8NHL6 24-650).
T9 construct: whole, on cells; also called hILT2
The test is described as above. Here is the method:
as §3

For test [16], the target named is T10, human LILRA5 (human, UniProt A6NI73 42-299).
T10 construct: whole, on cells; also called hLILRA5
T10 sequence (A6NI73 42-299): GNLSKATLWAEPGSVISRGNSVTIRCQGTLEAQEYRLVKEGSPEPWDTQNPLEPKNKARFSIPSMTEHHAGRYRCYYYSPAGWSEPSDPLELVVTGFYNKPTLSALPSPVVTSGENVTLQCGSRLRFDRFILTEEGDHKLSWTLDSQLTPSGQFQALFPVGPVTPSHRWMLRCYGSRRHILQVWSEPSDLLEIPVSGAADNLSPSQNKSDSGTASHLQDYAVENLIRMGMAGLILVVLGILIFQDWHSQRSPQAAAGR
The test is described as above. Here is the method:
as §3

Test [17] deals with T11, human LILRA2 (human, UniProt Q8N149 24-483).
T11 construct: whole, on cells; also called hLILRA2
T11 sequence (Q8N149 24-483): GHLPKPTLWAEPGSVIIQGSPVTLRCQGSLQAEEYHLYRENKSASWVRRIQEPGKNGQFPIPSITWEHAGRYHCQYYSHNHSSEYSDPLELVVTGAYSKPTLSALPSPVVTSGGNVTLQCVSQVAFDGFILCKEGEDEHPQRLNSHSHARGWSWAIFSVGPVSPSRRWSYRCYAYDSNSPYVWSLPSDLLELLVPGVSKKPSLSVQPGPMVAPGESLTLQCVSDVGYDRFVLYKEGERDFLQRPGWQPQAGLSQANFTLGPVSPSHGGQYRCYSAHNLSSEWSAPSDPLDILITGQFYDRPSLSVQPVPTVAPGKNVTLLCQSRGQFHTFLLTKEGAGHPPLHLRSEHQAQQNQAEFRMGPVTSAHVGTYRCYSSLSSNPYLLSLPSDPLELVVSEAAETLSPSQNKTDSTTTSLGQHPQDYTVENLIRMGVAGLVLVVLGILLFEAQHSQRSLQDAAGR
The description is as above. The protocol: as §3

Test [18] addresses T12, human ILT5 (human, UniProt O75022 24-631).
T12 construct: whole, on cells; also called hILT5; LILRB3
The description is as above. The protocol:
as §3

In test [19] the target is T3, human ILT4 (hILT4) expressed on cells. Briefly: antibody titration flow cytometry binding assay on transfected cells, nonlinear regression.
For test [20], the target named is T13, human LILRA3 (human, UniProt Q8N6C8 24-439).
T13 construct: whole, on cells; also called hLILRA3; LIRA3
T13 sequence (Q8N6C8 24-439): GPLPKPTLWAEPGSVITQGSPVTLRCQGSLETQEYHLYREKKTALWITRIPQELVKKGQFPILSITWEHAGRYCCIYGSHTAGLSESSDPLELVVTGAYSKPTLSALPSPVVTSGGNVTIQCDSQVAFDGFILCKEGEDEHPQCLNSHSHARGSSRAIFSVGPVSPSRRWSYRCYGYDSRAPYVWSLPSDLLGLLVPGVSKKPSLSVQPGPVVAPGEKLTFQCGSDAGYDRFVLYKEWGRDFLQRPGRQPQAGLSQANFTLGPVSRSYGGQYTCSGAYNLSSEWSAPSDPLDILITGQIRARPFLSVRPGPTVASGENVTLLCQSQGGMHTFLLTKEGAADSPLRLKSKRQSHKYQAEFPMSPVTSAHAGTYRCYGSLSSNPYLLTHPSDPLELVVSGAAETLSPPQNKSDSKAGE
The description is as above.

Test [21] deals with T14, human LILRA1 (human, UniProt O75019 17-489).
T14 construct: whole, on cells; also called hLILRA1; LIRA1
T14 sequence (O75019 17-489): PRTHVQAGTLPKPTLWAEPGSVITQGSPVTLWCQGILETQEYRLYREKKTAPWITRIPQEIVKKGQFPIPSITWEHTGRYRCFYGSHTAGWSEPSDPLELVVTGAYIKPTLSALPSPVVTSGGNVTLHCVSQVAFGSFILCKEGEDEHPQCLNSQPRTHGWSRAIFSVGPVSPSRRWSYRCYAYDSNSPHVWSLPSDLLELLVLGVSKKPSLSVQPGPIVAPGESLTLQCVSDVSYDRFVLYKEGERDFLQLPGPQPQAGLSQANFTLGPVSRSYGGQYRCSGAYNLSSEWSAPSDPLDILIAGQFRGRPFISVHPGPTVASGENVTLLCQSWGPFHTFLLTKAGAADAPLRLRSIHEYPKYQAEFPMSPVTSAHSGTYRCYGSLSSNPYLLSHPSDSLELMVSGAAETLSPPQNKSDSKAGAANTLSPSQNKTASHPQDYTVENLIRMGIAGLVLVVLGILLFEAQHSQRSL
The test is described as above.

“And” between values parts separate entries of the source, which are not always exact repeats. Identical values can stand only once.

T2 sequence (chain, as listed by the source limits assumed): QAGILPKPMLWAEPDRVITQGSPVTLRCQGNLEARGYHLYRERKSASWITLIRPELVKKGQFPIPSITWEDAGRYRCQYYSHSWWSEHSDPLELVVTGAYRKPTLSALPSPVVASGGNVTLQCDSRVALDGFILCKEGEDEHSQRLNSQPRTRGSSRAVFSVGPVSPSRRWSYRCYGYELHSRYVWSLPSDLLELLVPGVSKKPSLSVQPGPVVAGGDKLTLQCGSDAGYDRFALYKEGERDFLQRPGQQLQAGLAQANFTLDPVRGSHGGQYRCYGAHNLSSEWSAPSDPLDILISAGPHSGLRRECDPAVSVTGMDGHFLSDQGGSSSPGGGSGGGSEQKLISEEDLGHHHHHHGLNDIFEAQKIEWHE
T1 sequence (Q8N423 other isoform, or with tags, fused parts or gaps): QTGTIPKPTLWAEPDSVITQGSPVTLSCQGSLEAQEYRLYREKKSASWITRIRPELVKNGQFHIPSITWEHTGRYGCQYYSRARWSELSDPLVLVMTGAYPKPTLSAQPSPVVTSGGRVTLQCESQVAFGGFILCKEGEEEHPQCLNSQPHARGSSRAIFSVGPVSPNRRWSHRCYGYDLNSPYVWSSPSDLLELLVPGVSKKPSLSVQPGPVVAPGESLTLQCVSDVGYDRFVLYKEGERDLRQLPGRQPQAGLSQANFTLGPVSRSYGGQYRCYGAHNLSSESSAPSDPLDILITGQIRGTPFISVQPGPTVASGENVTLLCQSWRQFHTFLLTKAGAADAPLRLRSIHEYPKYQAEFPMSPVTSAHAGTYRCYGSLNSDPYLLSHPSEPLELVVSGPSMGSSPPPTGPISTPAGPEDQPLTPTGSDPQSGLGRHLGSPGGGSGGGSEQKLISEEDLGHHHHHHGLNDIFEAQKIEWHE
T7 sequence (Q6PI73 24-481): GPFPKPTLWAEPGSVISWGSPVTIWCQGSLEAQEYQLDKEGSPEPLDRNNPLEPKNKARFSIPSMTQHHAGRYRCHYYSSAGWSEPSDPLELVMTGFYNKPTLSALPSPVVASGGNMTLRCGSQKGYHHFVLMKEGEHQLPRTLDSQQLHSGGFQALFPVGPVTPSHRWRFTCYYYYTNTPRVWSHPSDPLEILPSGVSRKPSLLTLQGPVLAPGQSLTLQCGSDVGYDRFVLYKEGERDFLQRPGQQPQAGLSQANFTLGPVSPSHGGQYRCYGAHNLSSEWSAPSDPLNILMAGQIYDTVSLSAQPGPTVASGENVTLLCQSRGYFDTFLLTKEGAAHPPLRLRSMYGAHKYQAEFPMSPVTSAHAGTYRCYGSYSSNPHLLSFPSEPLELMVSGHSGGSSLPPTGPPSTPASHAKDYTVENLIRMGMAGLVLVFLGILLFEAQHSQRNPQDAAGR

B1: 21D9.IgG1.3 (antibody)
heavy: EGQLLESGGDLVQPGGSLRLSCATSGFTFSNYAMNWVRQAPGKGLEWISVISVSGGSTYYADSVKGRFTISRDNSKNTLYLQMNSLRAEDTAVYYCAKDYYYDSGSYYDSFFDYWGQGTLVTVSSASTKGPSVFPLAPSSKSTSGGTAALGCLVKDYFPEPVTVSWNSGALTSGVHTFPAVLQSSGLYSLSSVVTVPSSSLGTQTYICNVNHKPSNTKVDKRVEPKSCDKTHTCPPCPAPEAEGAPSVFLFPPKPKDTLMISRTPEVTCVVVDVSHEDPEVKFNWYVDGVEVHNAKTKPREEQYNSTYRVVSVLTVLHQDWLNGKEYKCKVSNKALPAPIEKTISKAKGQPREPQVYTLPPSREEMTKNQVSLTCLVKGFYPSDIAVEWESNGQPENNYKTTPPVLDSDGSFFLYSKLTVDKSRWQQGNVFSCSVMHEALHNHYTQKSLSLSPG
light: not shown
notes: also called 21D9 WT; ILT4.6.IgG1.3
Regarding B1, the Kd in [1] is 0.5 nM; in [2] it was 0.32 nM; in test [3], 4 nM; in test [6], 0.31 nM and 0.32 nM and 0.37 nM. In test [1], the app. act. came out at 70%. The koff in test [1] was 0.00054 s⁻¹; in [2] it was 0.00026 s⁻¹; in [3], 0.0035 s⁻¹; in [6] it was 0.001 s⁻¹ and 0.0011 s⁻¹. The association rate constant (kon) in test [1] is 1.1e+06 M⁻¹ s⁻¹; in test [2] it was 820000 M⁻¹ s⁻¹; in [3], 880000 M⁻¹ s⁻¹; in test [6] it was 3.3e+06 M⁻¹ s⁻¹ and 3.2e+06 M⁻¹ s⁻¹ and 3e+06 M⁻¹ s⁻¹. In addition, the “fold weaker affinity than for human ILT4” value in [4] is roughly 12 fold. This molecule also came in with a half-maximal effective concentration (EC50) in test [5] of 0.0127 µg/mL.

B2: 21A5.IgG1.3 (antibody, V domains shown)
VH: QVQLVQSGAEVKKPGASVKVSCKASGYTFTDYYLHWVRQAPGQGLEWMGIFHPSGDITSSAQNFQGRVTMIRDTSTSTVYMELSSLRSEDTAVYYCARGGVLRYLDWSHAFDIWGQGTMVTVSS
VL: EIALTQSPGTLSLSPGERATLSCRASQSVSSSYLAWYQQKPGQAPRLLIYGASSRATGIPDRFSGSGSGTDFTLTISRLEPEDFAVYYCQQYGSTFGGGTKVEIKR
notes: Fully human antibody, IgG1.3, kappa; also called 21A5 WT; 21A5WT
With B2, the values for the dissociation constant (Kd) in [1] and in [6] were 0.023 nM and 0.14 nM, respectively. For the same molecule, the app. act. came out at 98% in test [1] and 126% in [6]. Also, the koff in test [1] was 1.2e-05 s⁻¹; in test [6] it was 0.00017 s⁻¹. Besides, the kon in [1] was 520000 M⁻¹ s⁻¹; in test [6] it was 1.2e+06 M⁻¹ s⁻¹. Moreover, the IC50 stood at 1.61 µg/mL in test [7] and 3.83 µg/mL in [8]. Besides, the EC50 in [9] came out at 0.0738 µg/mL; in test [10], 0.0898 µg/mL; in test [5], 0.0518 µg/mL; in test [19], 0.091 µg/mL; in [20] it was 9.18 µg/mL; in test [21], 12.5 µg/mL. For the same molecule, the binding result in [11], in test [12], in test [13], in test [14], in test [15] and in test [16] was “no binding (tested: 20 µg/ml)” each time. The binding result in test [17] and in test [18] was “no binding (tested: 20 µg/ml)” throughout.

Usually Kd stands for the constant that tells how readily two partners part at equilibrium. Low readings indicate tighter binding, high ones weaker binding. The term koff denotes a measure of how fast the partners let go of each other. One may read the kon as the rate constant with which the complex forms. A low value points to slower complex formation. The EC50 is the concentration giving half of the maximal effect. Low values mean greater potency, high ones weaker potency. A word on the IC50: it is the point on the concentration scale where inhibition reaches its midpoint. Read a high IC50 as a need for much substance.
